Results on 13 molecules are retold here after patent US20190389910A1 (ORUM THERAPEUTICS, published 2019).

Test [1] addresses human recombinant integrin αvβ5 (αv extracellular domain-acidic leucine zipper-His×6 with β5 extracellular domain-basic leucine zipper) (human) (UniProt P06756). Kind of test: BLI (Octet), antibody captured on anti-human IgG Fc (AHC) biosensor, integrin αvβ5 3.1-100 nM as analyte, divalent cations. (In general: BLI is a label-free optical method that tracks binding on a fibre tip over time.)

For test [2] the target is unchanged. Kind of test: BLI (Octet), antibody on AHC biosensor, integrin αvβ5 as analyte.
Test [3] concerns the target human recombinant EpCAM antigen (extracellular domain, residues 1 to 265, fused with 6×His tag and Avi-tag) (human) (UniProt P16422). Kind of test: SPR (Biacore 2000), EpCAM on CM5 chip (about 211 RU), antibody 6.25-100 nM as analyte.
Test [4] shares this target. Kind of test: SPR (Biacore 2000), EpCAM on CM5 chip (about 367 RU), antibody 6.25-100 nM as analyte.
Test [5] deals with human recombinant integrin αvβ6 (αv extracellular domain-acidic leucine zipper-His×6 with β6 extracellular domain-basic leucine zipper) (human) (UniProt P06756). Kind of test: BLI (Octet), antibody captured on anti-human IgG Fc (AHC) biosensor, integrin αvβ6 3.1-100 nM as analyte, divalent cations.

Numbering of substitutions follows the chain as printed.

human recombinant EpCAM antigen (extracellular domain, residues 1 to 265, fused with 6×His tag and Avi-tag) (human), sequence (P16422 24-265 limits assumed, form in doubt): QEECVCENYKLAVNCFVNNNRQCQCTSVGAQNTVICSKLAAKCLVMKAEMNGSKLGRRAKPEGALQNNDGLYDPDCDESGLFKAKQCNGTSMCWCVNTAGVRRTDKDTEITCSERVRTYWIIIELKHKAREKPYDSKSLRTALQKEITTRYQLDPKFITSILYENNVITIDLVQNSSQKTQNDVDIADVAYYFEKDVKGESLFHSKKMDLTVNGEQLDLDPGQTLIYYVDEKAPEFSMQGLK
human recombinant integrin αvβ5 (αv extracellular domain-acidic leucine zipper-His×6 with β5 extracellular domain-basic leucine zipper) (human), sequence (P06756 other isoform, or with tags, fused parts or gaps, chain 1 of 2): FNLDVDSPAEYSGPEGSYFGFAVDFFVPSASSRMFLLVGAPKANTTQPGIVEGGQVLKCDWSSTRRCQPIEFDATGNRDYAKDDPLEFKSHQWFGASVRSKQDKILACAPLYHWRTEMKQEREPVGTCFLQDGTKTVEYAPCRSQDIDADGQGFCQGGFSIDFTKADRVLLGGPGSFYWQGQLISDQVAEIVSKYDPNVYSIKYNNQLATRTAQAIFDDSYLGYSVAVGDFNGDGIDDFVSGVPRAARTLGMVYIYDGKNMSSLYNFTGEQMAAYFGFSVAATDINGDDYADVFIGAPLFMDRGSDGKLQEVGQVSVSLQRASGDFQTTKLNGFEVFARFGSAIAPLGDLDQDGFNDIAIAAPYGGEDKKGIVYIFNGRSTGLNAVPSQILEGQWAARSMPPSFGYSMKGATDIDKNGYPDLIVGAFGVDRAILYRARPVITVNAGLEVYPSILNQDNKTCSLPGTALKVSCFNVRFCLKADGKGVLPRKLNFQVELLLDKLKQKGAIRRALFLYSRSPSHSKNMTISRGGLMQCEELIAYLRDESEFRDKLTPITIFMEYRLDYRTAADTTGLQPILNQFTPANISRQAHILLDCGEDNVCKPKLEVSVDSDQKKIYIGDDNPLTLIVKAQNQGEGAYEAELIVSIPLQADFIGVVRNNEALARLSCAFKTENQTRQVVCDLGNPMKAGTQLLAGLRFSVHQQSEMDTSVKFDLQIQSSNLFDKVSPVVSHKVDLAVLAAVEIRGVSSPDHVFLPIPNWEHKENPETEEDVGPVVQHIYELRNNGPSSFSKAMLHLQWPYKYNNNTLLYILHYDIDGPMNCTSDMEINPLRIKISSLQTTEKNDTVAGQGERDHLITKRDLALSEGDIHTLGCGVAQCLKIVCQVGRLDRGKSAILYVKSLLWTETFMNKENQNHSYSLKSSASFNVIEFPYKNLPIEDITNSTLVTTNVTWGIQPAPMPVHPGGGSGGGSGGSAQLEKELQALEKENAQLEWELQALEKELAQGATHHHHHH
human recombinant integrin αvβ5 (αv extracellular domain-acidic leucine zipper-His×6 with β5 extracellular domain-basic leucine zipper) (human), sequence (chain, as listed by the source, chain 2 of 2): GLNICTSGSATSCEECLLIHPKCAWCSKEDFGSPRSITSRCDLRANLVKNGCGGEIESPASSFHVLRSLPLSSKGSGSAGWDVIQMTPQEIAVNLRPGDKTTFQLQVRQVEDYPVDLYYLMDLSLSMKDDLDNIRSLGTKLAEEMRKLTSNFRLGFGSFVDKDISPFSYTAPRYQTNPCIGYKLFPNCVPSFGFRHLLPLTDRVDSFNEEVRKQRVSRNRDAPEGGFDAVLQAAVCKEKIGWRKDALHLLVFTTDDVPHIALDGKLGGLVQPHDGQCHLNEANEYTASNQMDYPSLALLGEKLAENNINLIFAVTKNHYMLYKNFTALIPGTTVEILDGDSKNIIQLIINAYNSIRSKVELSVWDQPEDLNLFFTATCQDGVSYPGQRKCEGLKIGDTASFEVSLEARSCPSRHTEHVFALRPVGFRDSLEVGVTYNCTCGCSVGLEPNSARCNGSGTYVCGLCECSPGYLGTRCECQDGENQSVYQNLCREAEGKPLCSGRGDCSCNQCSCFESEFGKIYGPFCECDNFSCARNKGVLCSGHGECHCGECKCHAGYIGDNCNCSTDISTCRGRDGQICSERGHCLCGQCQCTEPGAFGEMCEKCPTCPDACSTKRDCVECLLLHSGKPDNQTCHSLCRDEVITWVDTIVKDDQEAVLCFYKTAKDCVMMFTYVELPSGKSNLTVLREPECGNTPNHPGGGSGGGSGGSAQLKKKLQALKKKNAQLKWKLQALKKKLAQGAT
human recombinant integrin αvβ6 (αv extracellular domain-acidic leucine zipper-His×6 with β6 extracellular domain-basic leucine zipper) (human), sequence (P06756 other isoform, or with tags, fused parts or gaps, chain 1 of 2): as the sequence (P06756 other isoform, or with tags, fused parts or gaps, chain 1 of 2) above
human recombinant integrin αvβ6 (αv extracellular domain-acidic leucine zipper-His×6 with β6 extracellular domain-basic leucine zipper) (human), sequence (chain, as listed by the source, chain 2 of 2): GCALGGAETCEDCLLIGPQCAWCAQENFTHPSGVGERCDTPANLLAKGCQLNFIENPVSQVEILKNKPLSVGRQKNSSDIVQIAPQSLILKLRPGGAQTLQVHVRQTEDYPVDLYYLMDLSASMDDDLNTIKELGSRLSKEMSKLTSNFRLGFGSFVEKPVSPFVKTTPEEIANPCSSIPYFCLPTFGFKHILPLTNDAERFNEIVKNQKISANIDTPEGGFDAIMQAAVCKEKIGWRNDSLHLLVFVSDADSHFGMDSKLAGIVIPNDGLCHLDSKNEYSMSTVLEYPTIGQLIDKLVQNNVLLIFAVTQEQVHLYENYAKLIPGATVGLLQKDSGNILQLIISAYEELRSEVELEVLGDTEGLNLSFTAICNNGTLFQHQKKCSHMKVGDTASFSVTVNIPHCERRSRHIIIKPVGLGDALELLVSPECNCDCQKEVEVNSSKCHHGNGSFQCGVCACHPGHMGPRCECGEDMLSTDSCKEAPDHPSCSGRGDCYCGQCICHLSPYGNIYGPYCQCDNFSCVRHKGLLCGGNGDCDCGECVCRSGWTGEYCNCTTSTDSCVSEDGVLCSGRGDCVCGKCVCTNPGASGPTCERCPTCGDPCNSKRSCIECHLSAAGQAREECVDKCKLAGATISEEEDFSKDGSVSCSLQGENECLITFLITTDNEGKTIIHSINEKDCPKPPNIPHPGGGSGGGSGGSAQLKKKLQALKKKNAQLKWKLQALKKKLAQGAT

B1: 5#2-Ras03 (antibody, part only; not given: RT22 heavy chain, constant regions, V domains shown, not shown: another chain or arm of the molecule; a dimerising Fc or GST; large carriers; small tags and cut ends)
VL: ASYNDCQSRGDTFCVADMGSSSNDIQMTQSPSSLSASVGDRVTITCKSSQSLLNSRDGKNYLAWYQQKPGKAPKLLIYWASTRESGVPSRFSGSGSGTDFTLTISSLQPEDFATYFCQQYWYWMYTFGQGTKVEIK
modifications: chain 1: disulfide bond Cys6-Cys14 closes the 5#2 cyclic peptide
As usually defined, the Kd is the free concentration of one partner at which half of the binding sites on the other are occupied at equilibrium, for simple one-to-one binding. One may read the koff as the first-order rate constant of dissociation. As a reminder, the kon is the second-order rate constant of association. Turning to B1, in test [1], the dissociation constant (Kd) amounted to 2.63 nM, the koff was 0.00012 s⁻¹ and the association rate constant (kon) is 45500 M⁻¹ s⁻¹.

B2: 5#1-Ras03 (antibody, part only; not given: RT22 heavy chain, constant regions, V domains shown, not shown: another chain or arm of the molecule; a dimerising Fc or GST; large carriers; small tags and cut ends)
VL: LPSGACVVRGDTFQCVSVGMGSSSNDIQMTQSPSSLSASVGDRVTITCKSSQSLLNSRDGKNYLAWYQQKPGKAPKLLIYWASTRESGVPSRFSGSGSGTDFTLTISSLQPEDFATYFCQQYWYWMYTFGQGTKVEIK
modifications: chain 1: disulfide bond Cys6-Cys15 closes the 5#1 cyclic peptide
Take B2: the fold higher affinity than in4-Ras03 in test [2] is 2 fold. In test [1], the Kd came to 1.13 nM, the off-rate constant (koff) is 6.39e-05 s⁻¹ and the kon stood at 56700 M⁻¹ s⁻¹.

B3: epRas03 (4-8) (antibody, part only; not given: RT22 heavy chain, light constant, V domains shown, not shown: another chain or arm of the molecule; a dimerising Fc or GST)
VL: RNLLCIGNLCWPMGSSSNDIQMTQSPSSLSASVGDRVTITCKSSQSLLNSRDGKNYLAWYQQKPGKAPKLLIYWASTRESGVPSRFSGSGSGTDFTLTISSLQPEDFATYFCQQYWYWMYTFGQGTKVEIK
modifications: chain 1: disulfide bond Cys5-Cys10 closes the cyclic peptide
On to B3, for which, in test [3], the Kd was 3.04 nM, the koff is 0.00224 s⁻¹ and the kon turned out to be 737000 M⁻¹ s⁻¹.

B4: ep3-Ras03 (antibody, part only; not given: RT22 heavy chain, light constant, V domains shown, not shown: another chain or arm of the molecule; a dimerising Fc or GST)
VL: B3 VL with R1E, L4Q, P12S
modifications: chain 1: disulfide bond Cys5-Cys10 closes the cyclic peptide
As to B4, in test [4], the dissociation constant (Kd) was 2.11 nM, the off-rate (koff) was found to be 0.0036 s⁻¹ and the kon is 1.7e+06 M⁻¹ s⁻¹.

B5: epRas03 (4-13) (antibody, part only; not given: RT22 heavy chain, light constant, V domains shown, not shown: another chain or arm of the molecule; a dimerising Fc or GST)
VL: B3 VL with L4Q, G7R, L9I, P12S
modifications: chain 1: disulfide bond Cys5-Cys10 closes the cyclic peptide
Regarding B5, in test [3], the dissociation constant Kd amounted to 0.185 nM, the off-rate (koff) turned out to be 0.00105 s⁻¹ and the kon worked out at 5.69e+06 M⁻¹ s⁻¹.

B6: ep6-Ras03 (antibody, part only; not given: RT22 heavy chain, light constant, V domains shown, not shown: another chain or arm of the molecule; a dimerising Fc or GST)
VL: B3 VL with R1N, L4R, L9I, P12S
modifications: chain 1: disulfide bond Cys5-Cys10 closes the Ep6 cyclic peptide
For the molecule B6, in test [4], the dissociation constant Kd came to 1.86 nM and the kon amounted to 3.02e+06 M⁻¹ s⁻¹.

B7: ep7-Ras03 (antibody, part only; not given: RT22 heavy chain, light constant, V domains shown, not shown: another chain or arm of the molecule; a dimerising Fc or GST)
VL: B3 VL with R1D, L4R, L9I, P12S
modifications: chain 1: disulfide bond Cys5-Cys10 closes the Ep7 cyclic peptide
As to B7, in test [4], the equilibrium dissociation constant (Kd) is 4.35 nM and the on-rate (kon) came out at 1.36e+06 M⁻¹ s⁻¹.

B8: ep4-Ras03 (antibody, part only; not given: RT22 heavy chain, light constant, V domains shown, not shown: another chain or arm of the molecule; a dimerising Fc or GST)
VL: B3 VL with R1E, N2H, L4H, I6L, N8S, P12S
modifications: chain 1: disulfide bond Cys5-Cys10 closes the cyclic peptide
Consider B8, for which, in test [4], the Kd came to 12.4 nM, the off-rate constant (koff) was found to be 0.00905 s⁻¹ and the kon came out at 728000 M⁻¹ s⁻¹.

B9: epRas03 (4-14) (antibody, part only; not given: RT22 heavy chain, light constant, V domains shown, not shown: another chain or arm of the molecule; a dimerising Fc or GST)
VL: B3 VL with L4H
modifications: chain 1: disulfide bond Cys5-Cys10 closes the cyclic peptide
Regarding B9, in test [3], the Kd is 183 nM, the off-rate (koff) came to 0.00205 s⁻¹ and the kon came to 11200 M⁻¹ s⁻¹.

B10: epRas03 (4-27) (antibody, part only; not given: RT22 heavy chain, light constant, V domains shown, not shown: another chain or arm of the molecule; a dimerising Fc or GST)
VL: B3 VL with N2H, L4W, I6L, N8R
modifications: chain 1: disulfide bond Cys5-Cys10 closes the cyclic peptide
Turning to B10, in test [3], the Kd stood at 9.94 nM, the dissociation rate constant (koff) was determined as 0.00421 s⁻¹ and the kon was determined as 424000 M⁻¹ s⁻¹.

B11: epRas03 (4-19) (antibody, part only; not given: RT22 heavy chain, light constant, V domains shown, not shown: another chain or arm of the molecule; a dimerising Fc or GST)
VL: B3 VL with L4R, L9I, P12S
modifications: chain 1: disulfide bond Cys5-Cys10 closes the cyclic peptide
Turning to B11, in test [3], the equilibrium dissociation constant (Kd) was 0.313 nM, the off-rate constant (koff) turned out to be 0.00168 s⁻¹ and the on-rate constant (kon) came out at 5.38e+06 M⁻¹ s⁻¹.

B12: epRas03 (4-12) (antibody, part only; not given: RT22 heavy chain, light constant, V domains shown, not shown: another chain or arm of the molecule; a dimerising Fc or GST)
VL: B3 VL with I6L, G7R, N8R, L9I
modifications: chain 1: disulfide bond Cys5-Cys10 closes the cyclic peptide
B12: in test [3], the Kd is 17.7 nM, the koff is 0.00117 s⁻¹ and the kon turned out to be 66400 M⁻¹ s⁻¹.

B13: SFITGv6-Ras03 (antibody, part only; not given: RT22 heavy chain, constant regions, V domains shown, not shown: another chain or arm of the molecule; a dimerising Fc or GST; large carriers; small tags and cut ends)
VL: GRCTFRGDLMQLCYPDMGSSSNDIQMTQSPSSLSASVGDRVTITCKSSQSLLNSRDGKNYLAWYQQKPGKAPKLLIYWASTRESGVPSRFSGSGSGTDFTLTISSLQPEDFATYFCQQYWYWMYTFGQGTKVEIK
modifications: chain 1: disulfide bond Cys3-Cys13 closes the SFITGv6 cyclic peptide
B13: in test [5], the Kd was determined as 0.457 nM, the koff came to 0.000128 s⁻¹ and the on-rate constant (kon) was found to be 279000 M⁻¹ s⁻¹.
